One assay concerns AMO-1 cells. The assay can be described thus: ADCC with human PBMCs, flow cytometry (CalceinAM/PI). In kind it is cell-based. Conditions: Exp. 1-3. As to the method:
For Tables 3b-c, “Theoretical Combination” represents the addition of the values of MOR202 alone and the values of LEN alone. The normalized data of Table 3b is calculated as follows. Therefore, the specific killing values of Table 3b are calculated by subtracting the values of the controls. Then the specific killing values are compared to the MOR202 group, which is set as 1.
The constant m determines the shape of the dose-effect curve. We used Excel Fit software to carry out a linear regression calculation to estimate the parameters m and D50.
The CI-isobol method provides a quantitative assessment of synergism between drugs. A combination index (CI) is estimated from dose-effect data of single and combined drug treatments. […] Formally, the combination index (CI) of a combined drug treatment is defined as CI=D1/Dx1+D2/Dx2
The data is analysed in the following way: Antagonistic(AB)/C<(A/C)×(B/C) Additive(AB)/C=(A/C)×(B/C) Synergistic(AB)/C>(A/C)×(B/C) where A is the treatment with LEN alone; B is the treatment with MOR202 alone; C is response to the treatment vehicle; AB is combination of treatments A and B.

The next assay has as its system NCI-H929 cells. The description is as above.

Where “and” joins values, the source holds several entries; their conditions need not be identical. Equal entries are not always repeated.

Procedure for NCI-H929 cells: PBMC's were isolated by density gradient centrifugation of freshly isolated human blood. Isolated blood from different donors were layered on a defined volume of Biocoll (Biochrome AG; CAT No.:L6115; LOT No.:1050T) in a Falcon tube and centrifuged at 380 g. The PBMCs were isolated and supplemented with RPMI medium.
Cell suspensions were further incubated for 4 h at 37° C. To detect dead AMO-1 cells, cell suspensions were challenged with propidium iodide (PI) and subsequently analyzed in flow cytometry. Target cells were separated via gating of CalceinAM positive cell populations, and cells killed via ADCC were quantified.
Single and combination doses of 5 μM LEN and 15 μg/ml of MOR03207 and 0.2 or 0.07 μg/ml MOR202 were used.
Single and combination doses of 5 μM LEN and 15 μg/ml of MOR03207 and 0.2* or 0.07 μg/m MOR202 were used.

B1: MOR03207: binds lysosyme, and is used as isotype control, as it is IgG1 (SEQ ID NO: 8, 9) (antibody, V domains shown)
VH: QVQLQQSGPGLVKPSQTLSLTCAISGDSVSSNSAAWSWIRQSPGRGLEWLGRIYYRSKWYNDYAVSVKSRITINPDTSKNQFSLQLNSVTPEDTAVYYCARLDHRYHEDTVYPGMDVWGQGTLVTVSS
VL: DIELTQPPSVSVAPGQTARISCSGDNLPAYTVTWYQQKPGQAPVLVIYDDSDRPSGIPERFSGSNSGNTATLTISGTQAEDEADYYCASWDPSSGVVFGGGTKLTVLGQ
modifications: /mol_type=“protein” /note=“variable heavy chain” /organism=“synthetic construct”; /mol_type=“protein” /note=“variable light chain” /organism=“synthetic construct”
In the case of B1, in the assay with AMO-1 cells (control group of the effector-only experiments), the “% dead cells, MOR03207 15 μg/ml + DMSO (Table 4a)” value was 15.77 % dead cells and 15.97 % dead cells and 11.45 % dead cells. Besides, the “% dead cells (raw data, Table 4a)” value with AMO-1 cells (only PBMCs (effector cells) treated with LEN before MOR202, LEN 10 μM, MOR202 and MOR03207 15 μg/ml) was 17.42 % dead cells and 16.17 % dead cells and 12.17 % dead cells. In the assay with NCI-H929 cells (PBMCs and NCI-H929 cells treated with LEN before MOR202, LEN 5 μM, MOR202 0.07 μg/ml, MOR03207 15 μg/ml), the “% dead cells (raw data, Table 7a), Exp. 2 and 3” value was 14.09 % dead cells and 19.20 % dead cells. Besides, the “% dead cells (raw data, Table 7a), Exp. 1” value in the assay with NCI-H929 cells (PBMCs and NCI-H929 cells treated with LEN before MOR202, LEN 5 μM, MOR202 0.2 μg/ml (*), MOR03207 15 μg/ml) was 17.81 % dead cells. Moreover, the “% dead cells, MOR03207 (15 μg/ml) + DMSO (Table 7a)” value in the assay on NCI-H929 cells (control group, PBMCs and NCI-H929 cells LEN-treated series, Exp. 1-3) was 13.74 % dead cells and 18.27 % dead cells and 20.26 % dead cells. Further, the “% dead cells, MOR03207 (15 μg/ml) + DMSO (Table 8a)” value in the assay with NCI-H929 cells (control group, effector-only series, Exp. 1-3) was 24.43 % dead cells and 19.52 % dead cells and 24.16 % dead cells. Moreover, the “% dead cells (raw data, Table 8a), Exp. 2 and 3” value with NCI-H929 cells (only effector cells treated with LEN before MOR202, LEN 5 μM, MOR202 0.07 μg/ml, MOR03207 15 μg/ml) is 27.10 % dead cells and 23.19 % dead cells. In addition, in the assay on NCI-H929 cells (only effector cells treated with LEN before MOR202, LEN 5 μM, MOR202 0.2 μg/ml (*), MOR03207 15 μg/ml), the “% dead cells (raw data, Table 8a), Exp. 1” value was 17.07 % dead cells.

The record behind these values is US9289490B2, “Combinations and uses thereof” (MORPHOSYS AG, priority 2010, dated 2016).
